According to article PMC5173487 (Nature immunology, 2016):
Values belong to the binder of their own block, whether it stands above or below them.

What was measured:
[1] = biological target: T1, His-tagged EPRS (amino acids 1–196) (human (by GenBank NM_004446.2), UniProt P07814 1-196); assay: pull-down
T1 sequence (looked up): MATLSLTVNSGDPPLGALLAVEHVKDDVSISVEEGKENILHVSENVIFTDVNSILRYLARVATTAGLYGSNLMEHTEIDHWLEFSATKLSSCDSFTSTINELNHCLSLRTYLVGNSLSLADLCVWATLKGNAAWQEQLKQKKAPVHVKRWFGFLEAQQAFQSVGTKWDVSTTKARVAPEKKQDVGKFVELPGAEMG

[2] = biological target: GST-fused MAVS (amino acids 460–540) (UniProt Q7Z434 460-540); assay: pull-down
GST-fused MAVS (amino acids 460–540), sequence (Q7Z434 460-540): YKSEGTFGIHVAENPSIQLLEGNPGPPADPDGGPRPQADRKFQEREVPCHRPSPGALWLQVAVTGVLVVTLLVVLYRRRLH

binding result [1]: binds
B1: GST-fused PCBP2 (amino acids 11–82) (domain or fragment, UniProt Q15366 11-82, looked up)
chain: NVTLTIRLLMHGKEVGSIIGKKGESVKKMREESGARINISEGNCPERIITLAGPTNAIFKAFAMIIDKLEED

binding result [2]: binds
B2: His-tagged PCBP2 (amino acids 11–82) (domain or fragment, UniProt Q15366 11-82, looked up)
chain: B1 chain
